In the assay the target is CD20 on human lymphoma cells (Daudi, Jeko-1) (human) (UniProt P11836). As to the kind of experiment: cell-based or functional assay.
Sequence of UniProt P11836 (P11836 whole entry): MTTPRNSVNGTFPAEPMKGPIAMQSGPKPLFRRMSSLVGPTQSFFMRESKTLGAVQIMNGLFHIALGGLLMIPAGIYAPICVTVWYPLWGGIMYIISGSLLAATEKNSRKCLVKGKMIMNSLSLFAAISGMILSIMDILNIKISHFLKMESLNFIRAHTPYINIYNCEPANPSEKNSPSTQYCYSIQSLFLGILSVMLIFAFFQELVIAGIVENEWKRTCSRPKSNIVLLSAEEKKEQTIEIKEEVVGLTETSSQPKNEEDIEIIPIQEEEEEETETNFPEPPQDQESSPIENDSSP

The substance “veltuzumab (humanized anti-CD20 MAb hA20) (antibody)” registered an in vitro proliferation assay, Jeko-1 cells (MTS) of 1.5 nM. Substance “20-2b, a DNL conjugate of CH3-AD2-IgG-hA20 (CH3-AD2-IgG-v-mab) with four IFN-α2b-DDD2 moieties (from UniProt P01563 24-188)” came in with an in vitro proliferation assay, Jeko-1 cells (MTS), high-concentration response of 0.85 nM and an in vitro proliferation assay, Jeko-1 cells (MTS), low-concentration IFNα2b response of 0.97 pM.

The values above are taken from patent publication EP2271364B1.
